US20210403565A1 (BIOATLA, published 2021)
Positions count from the first letter of the chain named. One block for each binder: values may come before it.

Columns and labels:
[1] = target: T1, recombinant human CTLA4 extracellular domain (human, UniProt P16410 36-161); assay: ELISA, wells coated with human CTLA4, assay pH 6.0; lot 6978 in His buffer, T2W; unit from the axis Log[ng/mL]
T1 construct: extracellular domain; also called huCTLA-4
T1 sequence (looked up): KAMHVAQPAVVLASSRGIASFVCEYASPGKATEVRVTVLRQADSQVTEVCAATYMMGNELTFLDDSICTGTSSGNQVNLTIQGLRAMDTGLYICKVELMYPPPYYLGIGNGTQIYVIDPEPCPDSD
Experimental: (§1) Both ELISA and FACS analysis were used to measure the binding activity. […] The amount of bound antibodies was quantified using anti-human IgG antibody conjugated to HRP. The absorbance at 450 nm in each measurement was proportional to the amount of antibodies bound. […] EC50 value (in ng/mL) for binding to human CTLA4 was determined by absorbance at 450 nm against antibody concentration with Prism variable slope of four-parameter dose-response curve, which was calculated using the nonlinear fit (variable slope, four parameters) model built into GraphPad Prism software (version 7.03). The buffers tested included His buffer (His), Tris buffer (Tris), Glutamine buffer (Glu) and no buffer.

[2] = target: T2, human CTLA4 expressed on the cell surface of CHO cells (human, UniProt P16410 36-223); assay: FACS, cells expressing human CTLA4, assay pH 6.0, MFI; lot 6978 in His buffer, T0; unit from the axis Log[ng/mL]
T2 construct: whole, on cells; also called CHO-huCTLA4; huCTLA4
T2 sequence (looked up): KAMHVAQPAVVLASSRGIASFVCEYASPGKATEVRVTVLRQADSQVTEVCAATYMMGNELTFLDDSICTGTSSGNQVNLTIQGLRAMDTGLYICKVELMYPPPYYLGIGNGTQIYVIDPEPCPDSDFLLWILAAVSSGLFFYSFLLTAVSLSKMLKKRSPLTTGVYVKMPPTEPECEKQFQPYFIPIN
Experimental: (§2) The amount of bound antibodies was quantified using anti-human IgG antibody conjugated to fluorophores. The MFI in each reaction was proportional to the amount of antibodies bound. The EC₅₀ value (in ng/mL) for binding to human CTLA4 on cells was determined by MFI of the singlets population against antibody concentration with a Prism variable slope of four-parameter dose-response curve, which was calculated using the nonlinear fit (variable slope, four parameters) model built into GraphPad Prism software (version 7.03).

[3] = target: T2, human CTLA4 expressed on the cell …; assay: FACS, cells expressing human CTLA4, assay pH 6.0, MFI; lot 6978 in Glu buffer, T0; unit from the axis Log[ng/mL]
Experimental: as §2

[4] = target: T1, recombinant human CTLA4 extracellular …; assay: ELISA, wells coated with human CTLA4, assay pH 7.4; lot 6978 in His buffer, T2W; curve still rising at log 3 (OD450 below 0.2), no plateau; unit from the axis Log[ng/mL]
Experimental: as §1

[5] = target: T2, human CTLA4 expressed on the cell …; assay: FACS, CHO cells expressing human CTLA4 (CHO-huCTLA-4), pH 7.4, MFI; curve still rising at log 5, no plateau; no unit in the table, unit from the axis Log Antibodies [ng/ml]
Experimental: (§3) The amount of antibodies bound on the cells was quantified using anti-human IgG antibody conjugated to fluorophores. EC₅₀ values at pH 6.0 and 7.4 for binding to cells were calculated using the nonlinear fit (variable slope, four parameters) model built into GraphPad Prism software (version 7.03). The expression levels of human CTLA4 or cynomolgus CTLA4 on the surface of the CHO cells were determined using a BD QuantiBRITE™ PE kit.
At least two independent duplicate FACS experiments were performed for each antibody using each of the cell lines. The binding activities at different concentrations of the antibodies are plotted in these figures.

[6] = target: T3, cynomolgus CTLA4 expressed on the cell surface of CHO cells (cynomolgus, UniProt G7PL88 36-223); assay: FACS saturation, CHO-cynoCTLA-4, pH 7.4, MFI, titration up to about log 6.5; at baseline up to about log 4.5, about 100000 at the end, no plateau; no unit in the table, unit from the axis Log Antibodies [ng/ml]
T3 construct: whole, on cells; also called CHO-cynoCTLA4
T3 sequence: T2 sequence (looked up) with S14N, I18T, L106M
Experimental: as §3
Finally, saturations of the antibodies on the CHO cells expressing human or cynomolgus CTLA4 at pH 7.4 were also measured by FACS (FIGS. 8A-8B).

[7] = target: T1, recombinant human CTLA4 extracellular …; assay: ELISA, immobilised huCTLA-4, table head pH 7.0 (text: pH 7.4), Jun. 29, 2017
[8] = target: T1, recombinant human CTLA4 extracellular …; assay: ELISA, wells coated with human CTLA4, assay pH 7.4; lot 6972 in Glu buffer, T0; unit from the axis Log[ng/mL]
Experimental: as §1

[9] = target: T1, recombinant human CTLA4 extracellular …; assay: ELISA, wells coated with human CTLA4, assay pH 6.0; lot 6972 in His buffer, T2W; unit from the axis Log[ng/mL]
Experimental: as §1

[10] = target: T1, recombinant human CTLA4 extracellular …; assay: ELISA, wells coated with human CTLA4, assay pH 7.4; lot 6972 in His buffer, T2W; unit from the axis Log[ng/mL]
Experimental: as §1

[11] = target: T1, recombinant human CTLA4 extracellular …; assay: ELISA, wells coated with human CTLA4, assay pH 7.4; lot 6972 in Tris buffer, T0; unit from the axis Log[ng/mL]
Experimental: as §1

[12] = target: T2, human CTLA4 expressed on the cell …; assay: FACS, cells expressing human CTLA4, assay pH 6.0, MFI; lot 6972 in Glu buffer, T0; unit from the axis Log[ng/mL]
Experimental: as §2

EC50 [1]: 0.0441 µg/mL
EC50 [2]: 0.159 µg/mL
EC50 [3]: ~0.15 µg/mL
EC50 [4]: 1.07 µg/mL
EC50 [5]: 41.1 µg/mL
EC50 [6]: 1650 µg/mL
B1: BA-087-08-32 (antibody, V domains shown)
VH: EVQLVQSGAEVKKPGATVKISCKVSGFTFSHYTMHWIRQSPSRGLEWLGFISYDGNYKYYADSVKGRFTISRDNAKNSLYLQMNSLRAEDTAVYYCARTGWLGPFDYWGQGTLVTVSS
VL: EIVMTQSPATLSVSPGERATLSCRASQSVGSSYLAWYQQKPGKAPKLLIYGAFSRATGVPSRFSGSGSGTDFTLTISSLQPEDFATYYCQQDGSSPWTFGQGTKVEIK
notes: Detected with anti-human IgG and a molecular weight of 146 kDa was used in SPR, so it was tested as a whole IgG; also called BA-087-08-032; BA-087-08-32 (# 6978)

EC50 [7]: 0.0934 µg/mL
EC50 [8]: 0.11 µg/mL
EC50 [9]: 7.04 ng/mL
EC50 [10]: 0.0758 µg/mL
EC50 [11]: 0.0424 µg/mL
EC50 [12]: 0.291 µg/mL
B2: BA-087-05-19 (antibody, V domains shown)
VH: EVQLVESGGGLVQPGGSLRLSCAASGFTFSHYTMHWVRQAPGKGLEWVSFISYDGNNKYYADSVKGRFTISRDNSKNTLYLQMNSLRAEDTAVYYCARTGWLGPFDYWGQGTLVTVSS
VL: AIQLTQSPSSLSASVGDRVTITCRASQYVGSSYLAWYLQKPGQSPQLLIYGAFSRATGIPARFSGSGSGTEFTLTISSLQSEDFAVYYCQQDGSSPWTFGQGTKVEIK
notes: Detected with anti-human IgG and a molecular weight of 146 kDa was used in SPR, so it was tested as a whole IgG; also called BA-087-05-019; BA-087-05-19 (# 6972)
